Measured values published in patent US5091176A, “Polymer-modified peptide drugs having enhanced biological and pharmacological activities” (W. R. Grace & Co.-Conn., priority 1990, dated 1992).

Tests used:
alkaline phosphatase [1] = biological target: T1, alkaline phosphatase (Bos taurus, UniProt P19111); assay: Residual enzymatic activity of alkaline phosphatase after polymer modification (Example V, Table I); type: biochemical; conditions: for alk phos activity dA/dt: alkaline phosphatase reacted 1 hour with prepolymer at the listed NCO:protein NH2 ratio, quenched with TRIS, dialyzed; for alk phos activity % Remaining: relative to control without prepolymer, prepolymer at the listed NCO:protein NH2 ratio
Procedure: A constant amount of protein was treated with increasing amount of prepolymer and the residual activity was determined. For comparison with Prepolymer A (high temperature) prepolymers, two other isocyanate prepolymers were used. One is a 550 dalton mono methoxy polyethylene oxide end capped with IPDI; the second is a diol ([…] P-24) of molecular weight 2200 comprising 80% ethylene oxide and 20% propylene oxide, end capped with IPDI. Thus the 3+functionality of Prepolymer A is compared to mono- and di-functional isocyanate derivatives.
After one hour at ambient temperature the residual isocyanate was quenched by addition of 9 ml of 0.5 M TRIS, pH 9.0. The samples were then dialyzed vs. 0.05 M sodium borate, pH 9.0 at 4° C. using 7000 MWCO dialysis tubing. Samples of each were assayed for enzymatic activity then stored frozen.
Table 1 lists the relative amounts of protein amine and polymer isocyanate reacted, and the residual enzymatic activity remaining.

[2] = Circulatory half-life of radioiodinated peptide and conjugate after tail vein injection; set-up: species or system C57B1/6 mice; conditions: mouse, in vivo
Procedure: The conjugate from Example XIII was passed over a disposable Sephadex G25 column (PD10 from Pharmacia, Inc.) to separate free from polymer-bound peptide. Confirmation of the purity of the conjugate was obtained by HPLC. About 45 μg of conjugate (based on peptide) were radiolabeled with 125-iodine using the well known chloramine-T procedure. Free 125-iodine was separated from radiolabeled conjugate using a PD10 column. Of the original 30 μCi of Na^125 I used for the iodination, more than 23 μCi were incorporated into the conjugate.
Portions of the radiolabeled YRGDS-Prepolymer A conjugate from Example XIV were injected into the tail veins of C57B1/6 mice. As a control, YRGDS free peptide was radioiodinated by the procedure described in Example XIV and also injected. At various times blood was withdrawn from the animals and the amount of radioiodine remaining in the circulation determined using a gamma counter. A biphasic clearance curve (α:β) was obtained for both species. […] Thus by coupling the peptide to this polymer its clearance rate from the circulation is markedly extended.

alkaline phosphatase [3] = biological target: T1, alkaline phosphatase; assay: Residual enzyme activity of alkaline phosphatase-Prepolymer A conjugates, p-nitrophenylphosphate as substrate (Examples IX, X); type: biochemical, calf; set-up: Alkaline Phosphatase from calf intestine, Type I, was obtained from Sigma; purchased Sigma Type I; host or cells: calf intestine (tissue-derived); conditions: after 1 hour at ambient temperature
Procedure: Alkaline Phosphatase from calf intestine, Type I, was obtained from Sigma. A 5 mg/ml solution was prepared in 0.01 M Tris, pH 8.0, containing 1mM CaCl2. To 0.2 ml of this enzyme solution was added 0.02 ml of a 50% (w/w) solution of Prepolymer A (low temperature) in acetonitrile. After 1 hour at ambient temperature the solution was assayed for residual enzyme activity and injected into an HPLC to evaluate the molecular size of the conjugate. […] Size analysis was performed by HPLC using a Zorbax GF250 column (DuPont) and a mobile phase consisting of 0.05 M sodium phosphate, pH 7.0, with 0.3 M NaCl at a flow rate of 0.5 ml/min.

alkaline phosphatase [4] = conditions: alkaline phosphatase 50 ng/well; rabbit antisera, day 35 test bleed; FIG. 1
Procedure: Antibody titers in the five rabbit sera from Example VI were determined by ELISA based on the following general procedure:
1) antigen is immobilized in 96-well PVC plates,
2) test antiserum is diluted with phosphate-TWEEN-chicken serum (PTCS) and incubated on the plate for 1 hour,
3) the plate is washed and Biotin-Protein A is added for 1 hour,
4) the plate is washed and glucose oxidase-avidin is added for 15 minutes.
5) the plate is washed and substrate (glucose+peroxidase+ABTS) is added. Absorbance at 405 nm is read at intervals on a plate reader.

| Molecule | alk phos activity dA/dt (alkaline phosphatase [1]) | alk phos activity % Remaining (alkaline phosphatase [1]) | further results |
| --- | --- | --- | --- |
| alkaline phosphatase | 0.1200 | 100.0% | – |
| tyr-arg-gly-aspser [YRGDS free peptide] | – | – | half-life of the initial phase (t178 α) [2]: 30 s; label cleared in the initial phase [2]: about 75%; second phase half life (t1/2 β) [2]: 2 hours 40 minutes |
| A4: alkaline phosphatase coupled to mono-functional IPDI-capped methoxy polyethylene oxide, NCO:NH2 14.9:1 (conjugate, UniProt P19111 20-506, looked up, coupled to IPDI-capped methoxy PEG) Intestinal-type alkaline …: LVPVEEEDPAFWNRQAAQALDVAKKLQPIQTAAKNVILFLGDGMGVPTVTATRILKGQMNGKLGPETPLAMDQFPYVALSKTYNVDRQVPDSAGTATAYLCGVKGNYRTIGVSAAARYNQCKTTRGNEVTSVMNRAKKAGKSVGVVTTTRVQHASPAGAYAHTVNRNWYSDADLPADAQMNGCQDIAAQLVNNMDIDVILGGGRKYMFPVGTPDPEYPDDASVNGVRKRKQNLVQAWQAKHQGAQYVWNRTALLQAADDSSVTHLMGLFEPADMKYNVQQDHTKDPTLQEMTEVALRVVSRNPRGFYLFVEGGRIDHGHHDDKAYMALTEAGMFDNAIAKANELTSELDTLILVTADHSHVFSFGGYTLRGTSIFGLAPSKALDSKSYTSILYGNGPGYALGGGSRPDVNDSTSEDPSYQQQAAVPQASETHGGEDVAVFARGPQAHLVHGVEEETFVAHIMAFAGCVEPYTDCNLPAPTTATSIPD | 0.0313 | 26.1% | – |
| B3: alkaline phosphatase coupled to IPDI-capped diol TAKELACK P-24, NCO:NH2 6.8:1 (conjugate, UniProt P19111 20-506, looked up, coupled to IPDI-capped diol polymer) Intestinal-type alkaline …: LVPVEEEDPAFWNRQAAQALDVAKKLQPIQTAAKNVILFLGDGMGVPTVTATRILKGQMNGKLGPETPLAMDQFPYVALSKTYNVDRQVPDSAGTATAYLCGVKGNYRTIGVSAAARYNQCKTTRGNEVTSVMNRAKKAGKSVGVVTTTRVQHASPAGAYAHTVNRNWYSDADLPADAQMNGCQDIAAQLVNNMDIDVILGGGRKYMFPVGTPDPEYPDDASVNGVRKRKQNLVQAWQAKHQGAQYVWNRTALLQAADDSSVTHLMGLFEPADMKYNVQQDHTKDPTLQEMTEVALRVVSRNPRGFYLFVEGGRIDHGHHDDKAYMALTEAGMFDNAIAKANELTSELDTLILVTADHSHVFSFGGYTLRGTSIFGLAPSKALDSKSYTSILYGNGPGYALGGGSRPDVNDSTSEDPSYQQQAAVPQASETHGGEDVAVFARGPQAHLVHGVEEETFVAHIMAFAGCVEPYTDCNLPAPTTATSIPD | 0.0389 | 32.4% | – |
| B2: alkaline phosphatase coupled to IPDI-capped diol TAKELACK P-24, NCO:NH2 2.7:1 (conjugate, UniProt P19111 20-506, looked up, coupled to IPDI-capped diol polymer) Intestinal-type alkaline …: LVPVEEEDPAFWNRQAAQALDVAKKLQPIQTAAKNVILFLGDGMGVPTVTATRILKGQMNGKLGPETPLAMDQFPYVALSKTYNVDRQVPDSAGTATAYLCGVKGNYRTIGVSAAARYNQCKTTRGNEVTSVMNRAKKAGKSVGVVTTTRVQHASPAGAYAHTVNRNWYSDADLPADAQMNGCQDIAAQLVNNMDIDVILGGGRKYMFPVGTPDPEYPDDASVNGVRKRKQNLVQAWQAKHQGAQYVWNRTALLQAADDSSVTHLMGLFEPADMKYNVQQDHTKDPTLQEMTEVALRVVSRNPRGFYLFVEGGRIDHGHHDDKAYMALTEAGMFDNAIAKANELTSELDTLILVTADHSHVFSFGGYTLRGTSIFGLAPSKALDSKSYTSILYGNGPGYALGGGSRPDVNDSTSEDPSYQQQAAVPQASETHGGEDVAVFARGPQAHLVHGVEEETFVAHIMAFAGCVEPYTDCNLPAPTTATSIPD | 0.0604 | 50.3% | – |
| C2: alkaline phosphatase coupled to tri-functional Prepolymer A (high temperature), NCO:NH2 1.3:1 (conjugate, UniProt P19111 20-506, looked up, coupled to Prepolymer A) Intestinal-type alkaline …: LVPVEEEDPAFWNRQAAQALDVAKKLQPIQTAAKNVILFLGDGMGVPTVTATRILKGQMNGKLGPETPLAMDQFPYVALSKTYNVDRQVPDSAGTATAYLCGVKGNYRTIGVSAAARYNQCKTTRGNEVTSVMNRAKKAGKSVGVVTTTRVQHASPAGAYAHTVNRNWYSDADLPADAQMNGCQDIAAQLVNNMDIDVILGGGRKYMFPVGTPDPEYPDDASVNGVRKRKQNLVQAWQAKHQGAQYVWNRTALLQAADDSSVTHLMGLFEPADMKYNVQQDHTKDPTLQEMTEVALRVVSRNPRGFYLFVEGGRIDHGHHDDKAYMALTEAGMFDNAIAKANELTSELDTLILVTADHSHVFSFGGYTLRGTSIFGLAPSKALDSKSYTSILYGNGPGYALGGGSRPDVNDSTSEDPSYQQQAAVPQASETHGGEDVAVFARGPQAHLVHGVEEETFVAHIMAFAGCVEPYTDCNLPAPTTATSIPD | 0.0688 | 57.5% | – |
| Example IX: calf intestine alkaline phosphatase conjugated with Prepolymer A (low temperature), 1 hour reaction (conjugate, UniProt P19111 20-506, looked up, conjugated with Prepolymer A) Intestinal-type alkaline …: LVPVEEEDPAFWNRQAAQALDVAKKLQPIQTAAKNVILFLGDGMGVPTVTATRILKGQMNGKLGPETPLAMDQFPYVALSKTYNVDRQVPDSAGTATAYLCGVKGNYRTIGVSAAARYNQCKTTRGNEVTSVMNRAKKAGKSVGVVTTTRVQHASPAGAYAHTVNRNWYSDADLPADAQMNGCQDIAAQLVNNMDIDVILGGGRKYMFPVGTPDPEYPDDASVNGVRKRKQNLVQAWQAKHQGAQYVWNRTALLQAADDSSVTHLMGLFEPADMKYNVQQDHTKDPTLQEMTEVALRVVSRNPRGFYLFVEGGRIDHGHHDDKAYMALTEAGMFDNAIAKANELTSELDTLILVTADHSHVFSFGGYTLRGTSIFGLAPSKALDSKSYTSILYGNGPGYALGGGSRPDVNDSTSEDPSYQQQAAVPQASETHGGEDVAVFARGPQAHLVHGVEEETFVAHIMAFAGCVEPYTDCNLPAPTTATSIPD | – | – | enzymatic activity remained after the reaction (alkaline phosphatase [3]): 54% |
| C1: alkaline phosphatase coupled to tri-functional Prepolymer A (high temperature), NCO:NH2 0.7:1 (conjugate, UniProt P19111 20-506, looked up, coupled to Prepolymer A) Intestinal-type alkaline …: LVPVEEEDPAFWNRQAAQALDVAKKLQPIQTAAKNVILFLGDGMGVPTVTATRILKGQMNGKLGPETPLAMDQFPYVALSKTYNVDRQVPDSAGTATAYLCGVKGNYRTIGVSAAARYNQCKTTRGNEVTSVMNRAKKAGKSVGVVTTTRVQHASPAGAYAHTVNRNWYSDADLPADAQMNGCQDIAAQLVNNMDIDVILGGGRKYMFPVGTPDPEYPDDASVNGVRKRKQNLVQAWQAKHQGAQYVWNRTALLQAADDSSVTHLMGLFEPADMKYNVQQDHTKDPTLQEMTEVALRVVSRNPRGFYLFVEGGRIDHGHHDDKAYMALTEAGMFDNAIAKANELTSELDTLILVTADHSHVFSFGGYTLRGTSIFGLAPSKALDSKSYTSILYGNGPGYALGGGSRPDVNDSTSEDPSYQQQAAVPQASETHGGEDVAVFARGPQAHLVHGVEEETFVAHIMAFAGCVEPYTDCNLPAPTTATSIPD | – | – | binding of the antiserum raised against the antigen to immobilized alkaline phosphatase (immunogenicity) (alkaline phosphatase [4]): negligible binding |
